Columns and labels:
Assay in all cases: initial-rate kinetics, Michaelis-Menten fit
Type in all cases: biochemical, Corynebacterium glutamicum
Conditions in all cases: PBS with 0.5 mM MgCl2, pH 7.4, 37 °C
[1] = substrate: O=C(CO)[C@H](O)[C@H](O)COP(=O)(O)O
Excerpt: initial-rate kinetics, Michaelis-Menten fit on RPI (ribose-5-phosphate isomerase)

[2] = substrate: O=C[C@H](O)COP(=O)(O)O
Excerpt: initial-rate kinetics, Michaelis-Menten fit on GAPDH (glyceraldehyde 3-phosphate dehydrogenase)

[3] = substrate: O=C(CO)COP(=O)(O)O
Excerpt: initial-rate kinetics, Michaelis-Menten fit on TPI (triosephosphate isomerase)

[4] = substrate: Nc1ncnc2c1ncn2[C@@H]1O[C@H](COP(=O)(O)OP(=O)(O)OP(=O)(O)O)[C@@H](O)[C@H]1O
Excerpt: initial-rate kinetics, Michaelis-Menten fit on GLK (glucokinase)

[5] = substrate: O=C(O)[C@@H](CO)OP(=O)(O)O
Excerpt: initial-rate kinetics, Michaelis-Menten fit on ENO (enolase; ENO-Y)

[6] = substrate: O=C[C@H](O)COP(=O)(O)O; remark: listed apart in the source
Excerpt: initial-rate kinetics, Michaelis-Menten fit on TAL (transaldolase)

[7] = substrate: O=C(CO)[C@H](O)[C@H](O)COP(=O)(O)O; remark: listed apart in the source
Excerpt: initial-rate kinetics, Michaelis-Menten fit on RPE (ribulose-5-phosphate 3-epimerase)

[8] = substrate: O=C(O)[C@H](O)COP(=O)(O)O
Excerpt: initial-rate kinetics, Michaelis-Menten fit on PGMA / PMGA / pgma (phosphoglycerate mutase)

B1: RPI (ribose-5-phosphate isomerase) (Corynebacterium glutamicum ATCC 13032) (protein)
chain: MRVYLGADHAGFETKNAIAEHLKAHGHEVIDCGAHTYDAEDDYPAFCIEAASRTVNDPGSLGIVLGGSGNGEQIAANKVKGARCALAWSVETARLAREHNNANLIGIGGRMHSEEEALAIVDAFLEQEWSNAERHQRRIDILADYERTGIAPVVPNE
Question: What does the source list for B1?
Answer: Km [1]: 420 ± 60 µM; Vmax [1]: 11.2 µmol/min/mg; kcat [1]: 3.39 ± 0.22 s⁻¹

B2: GAPDH (glyceraldehyde 3-phosphate dehydrogenase) (Corynebacterium glutamicum ATCC 13032) (protein)
chain: MTIRVGINGFGRIGRNFFRAVLERSDDLEVVAVNDLTDNKTLSTLLKFDSIMGRLGQEVEYDDDSITVGGKRIAVYAERDPKNLDWAAHNVDIVIESTGFFTDANAAKAHIEAGAKKVIISAPASNEDATFVYGVNHESYDPENHNVISGASCTTNCLAPMAKVLNDKFGIENGLMTTVHAYTGDQRLHDAPHRDLRRARAAAVNIVPTSTGAAKAVALVLPELKGKLDGYALRVPVITGSATDLTFNTKSEVTVESINAAIKEAAVGEFGETLAYSEEPLVSTDIVHDSHGSIFDAGLTKVSGNTVKVVSWYDNEWGYTCQLLRLTELVASKL
Question: Which results are given for B2?
Answer: Km [2]: 1470 ± 110 µM; Vmax [2]: 15.7 µmol/min/mg; kcat [2]: 9.71 ± 0.36 s⁻¹

B3: TPI (triosephosphate isomerase) (Corynebacterium glutamicum ATCC 13032) (protein)
chain: MARKPLIAGNWKMNLDHQQAIGTVQKLAFALPKEYFEKVDVAVTVPFTDIRSVQTLVEGDKLEVTFGAQDVSQHESGAYTGEVSASMLAKLNCSWVVVGHSERREYHNESDELVAAKAKAALSNGISPIVCVGEPLEIREAGTHVEYVVEQTRKSLAGLDAAELANTVIAYEPVWAIGTGKVASAADAQEVCKAIRGLIVELAGDEVAEGLRILYGGSVKAETVAEIVGQPDVDGGLVGGASLDGEAFAKLAANAASVA
Question: Which Km [3] does the source give for B3 here?
Answer: Its Km is 5430 ± 160 µM.

Question: And the Vmax [3]?
Answer: The Vmax was 160 µmol/min/mg.

Question: What about the kcat [3] of the same protein?
Answer: Its kcat is 75.7 ± 2.11 s⁻¹.

B4: GLK (glucokinase) (Corynebacterium glutamicum ATCC 13032) (protein)
chain: MPQKPASFAVGFDIGGTNMRAGLVDESGRIVTSLSAPSPRTTQAMEQGIFDLVEQLKAEYPVGAVGLAVAGFLDPECEVVRFAPHLPWRDEPVREKLENLLGLPVRLEHDANSAAWGEHRFGAAQGADNWVLLALGTGIGAALIEKGEIYRGAYGTAPEFGHLRVVRGGRACACGKEGCLERYCSGTALVYTARELASHGSFRNSGLFDKIKADPNSINGKTITAAARQEDPLALAVLEDFSEWLGETLAIIADVLDPGMIIIGGGLSNAADLYLDRSVNHYSTRIVGAGYRPLARVATAQLGADAGMIGVADLARRSVVEAN
Question: How did the Km [4] turn out when B4 was run?
Answer: Its Km is 810 ± 80 µM.

Question: What about the Vmax [4] of the same protein?
Answer: The Vmax was 37.7 µmol/min/mg.

Question: And the kcat [4]?
Answer: The kcat was 22.2 ± 1.07 s⁻¹.

B5: ENO (enolase; ENO-Y) (Corynebacterium glutamicum ATCC 13032) (protein)
chain: MAEIMHVFAREILDSRGNPTVEAEVFLDDGSHGVAGVPSGASTGVHEAHELRDGGDRYLGKGVLKAVENVNEEIGDELAGLEADDQRLIDEAMIKLDGTANKSRLGANAILGVSMAVAKAAADSAGLPLFRYIGGPNAHVLPVPMMNIINGGAHADSGVDVQEFMIAPIGAETFSEALRNGAEVYHALKSVIKEKGLSTGLGDEGGFAPSVGSTREALDLIVEAIEKAGFTPGKDIALALDVASSEFFKDGTYHFEGGQHSAAEMANVYAELVDAYPIVSIEDPLQEDDWEGYTNLTATIGDKVQIVGDDFFVTNPERLKEGIAKKAANSILVKVNQIGTLTETFDAVDMAHRAGYTSMMSHRSGETEDTTIADLAVALNCGQIKTGAPARSDRVAKYNQLLRIEQLLGDAGVYAGRSAFPRFQG
Question: For B5, which Km [5] is on record?
Answer: The Km was 60 ± 10 µM.

B6: TAL (transaldolase) (Corynebacterium glutamicum ATCC 13032) (protein)
chain: MSHIDDLAQLGTSTWLDDLSRERITSGNLSQVIEEKSVVGVTTNPAIFAAAMSKGDSYDAQIAELKAAGASVDQAVYAMSIDDVRNACDLFTGIFESSNGYDGRVSIEVDPRISADRDATLAQAKELWAKVDRPNVMIKIPATPGSLPAITDALAEGISVNVTLIFSVARYREVIAAFIEGIKQAAANGHDVSKIHSVASFFVSRVDVEIDKRLEAIGSDEALALRGKAGVANAQRAYAVYKELFDAAELPEGANTQRPLWASTGVKNPAYAATLYVSELAGPNTVNTMPEGTIDAVLEQGNLHGDTLSNSAAEADAVFSQLEALGVDLADVFQVLETEGVDKFVASWSELLESMEARLK
Question: Which Km [6] does the source give for B6 here?
Answer: The Km was 290 ± 80 µM.

Question: What about the Vmax [6] of the same protein?
Answer: The Vmax was 6.44 µmol/min/mg.

Question: What about the kcat [6] of the same protein?
Answer: The kcat was 4.24 ± 0.47 s⁻¹.

B7: RPE (ribulose-5-phosphate 3-epimerase) (Corynebacterium glutamicum ATCC 13032) (protein)
chain: MAQRTPLIAPSILAADFSRLGEQVLAVPDADWIHVDIMDGHFVPNLSFGADITAAVNRVTDKELDVHLMIENPEKWVDNYIDAGADCIVFHVEATEGHVELAKYIRSKGVRAGFSLRPGTPIEDYLDDLEHFDEVIVMSVEPGFGGQSFMPEQLEKVRTLRKVIDERGLNTVIEIDGGISAKTIKQAADAGVDAFVAGSAVYGAEDPNKAIQELRALAQ
Question: What does the source list for B7?
Answer: Km [7]: 2810 ± 1250 µM; Vmax [7]: 430 µmol/min/mg; kcat [7]: 179 ± 22.2 s⁻¹

B8: PGMA / PMGA / pgma (phosphoglycerate mutase) (Corynebacterium glutamicum ATCC 13032) (protein)
chain: MTNGKLILLRHGQSEWNASNQFTGWVDVNLTEQGEAEAKRGGELLVEAGVLPGVVYTSLLRRAIRTANIALNAADRHWIPVIRDWRLNERHYGALQGLDKAATKEKYGDDQFMEWRRSYDTPPPELADDAEYSQANDPRYADLDVVPRTECLKDVVVRFVPYFEEEILPRAKKGETVLIAAHGNSLRALVKHLDGISDADIAELNIPTGIPLVYEIAEDGSVVNPGGTYLDPEAAAAGAAAVANQGNK
Question: B8 was tested. Which Km [8] did it give?
Answer: The Km was 4440 ± 320 µM.

Question: What about the Vmax [8] of the same protein?
Answer: The Vmax was 43.2 µmol/min/mg.

Question: And the kcat [8]?
Answer: Its kcat is 20.4 ± 1.05 s⁻¹.

Source: publication PMC10713844, “Characterization of the enzyme kinetics of EMP and HMP pathway in Corynebacterium glutamicum: reference for modeling metabolic networks” (Frontiers in Bioengineering and Biotechnology, 2023)
